The test deals with Cdc42 biosensor with the effector-binding mutations T35S and Y40C in Cdc42 (UniProt Q13153).

With “guanine nucleotide dissociation inhibitor (from UniProt P52565 1-204) (natural protein)”, the difference in FRET/mCer ratio of the biosensor by fluorometry in HEK293 cells, GDI-bound (with excess GDI) against GDI-free stood at 17%.
